Read-outs that look alike come from different tables or passages of the source.

In PMC3695725 one finds Ka, koff and kon data, which are given here for one substance.

Experiment in all cases: SPR
For orientation: In SPR one partner is held on a chip, and binding of the other changes the refractive index at the surface.

The target in test [1] is recombinant full length GST-TIMAP (wt), non-phosphorylated.
Test [2] has as its target double-thiophosphorylated GST-TIMAP (wt).
For test [3], the target named is mono-thiophosphorylated GST-TIMAP (wt).
For test [4], the target named is recombinant full length GST-TIMAP (wt), non-phosphorylated. This is another data set of the same source.

For the substance “recombinant PP1cβ (catalytic subunit of protein phosphatase 1, β isoform) (from UniProt P62140 1-327) (enzyme)”, the Ka in test [1] is 1.8e+06 M⁻¹; in test [2], 1.93e+06 M⁻¹; in test [3] it was 7.39e+06 M⁻¹; in test [4], 1.28e+06 M⁻¹. The koff (as a rule, the rate constant with which the complex falls apart) in test [2] was 0.000522 s⁻¹; in test [3], 0.000556 s⁻¹; in test [4] it was 0.00366 s⁻¹. Besides, the kon (commonly the rate constant with which the complex forms) in test [2] was 1010 M⁻¹ s⁻¹; in test [3], 4110 M⁻¹ s⁻¹; in test [4] it was 4680 M⁻¹ s⁻¹.
